# Data taken from US12697371B2, “Method for preventing, treating or delaying myocardial damage using neuregulin and composition” (ZENSUN (SHANGHAI) SCIENCE & TECHNOLOGY, CO., LTD., priority 2019, dated 2026).
# Entries after “also recorded” stand apart in the source; their conditions may differ.
# Experiments:
# [1] = system: rats with acute myocardial infarction caused by left coronary artery ligation; test: Echocardiography, rat acute myocardial infarction (left coronary artery ligation), 60-day subcutaneous NRG at different doses (Example 1); assay type: in vivo, Wistar rats; settings: for EF / LVEDd / LVEDs: 3 times a day
# Source text: 5.1 Establishment of a Rat Model of Heart Failure Caused by Coronary Artery Ligation
# The rats were anesthetized with isoflurane through a gaseous anesthesia apparatus. Then, the rats were fixed in a supine position. After chest hair removal, the skin was disinfected with 75% alcohol. After the incision of the left anterior chest skin, the thoracic muscles were bluntly separated, with the 4th and 5th ribs exposed. Hemostatic forceps were used to bluntly cut off the muscle between the 4th and 5th ribs. Both hands were used to squeeze the heart out of the thoracic cavity so that the heart should be fully exposed for observation of lung inflation and heartbeats. The left atrial appendage and pulmonary conus were fully exposed to ligate the left anterior descending coronary artery (LADCA) with surgical suture between them. […] Then, the thoracic muscles and skin were sutured. After surgery, the rats were put back into the cages for feeding and close observations.
# Administration began on the day following the animal model establishment of myocardial infarction.
# (§1) After being anesthetized with 4% isoflurane, the rats were fixed onto the operating board in the left lateral recumbent position. The head of the rats was fixed in the breathing mask of the gaseous anesthesia machine, with isoflurane used for maintenance of anesthesia. After chest hair removal, the skin was disinfected with 75% alcohol and coated with a coupling agent. An echocardiography probe was used to detect any echo signal from the left ventricle of the rats. The left ventricular end-diastolic diameter and left ventricular end-systolic diameter (D) were measured. The left ventricular end-diastolic volume (EDV) and end-systolic volume (ESV) were calculated. Also, the ejection fraction (EF) value was found, EF=(EDV−ESV)/EDV*100%.
# [2] = system: rats with acute myocardial infarction caused by left coronary artery ligation; test: Echocardiography, rat acute myocardial infarction, long-term subcutaneous NRG followed by withdrawal through frequency reduction (Example 3); assay type: in vivo, Wistar rats
# Method: Established in the same way as the rat model of heart failure caused by coronary artery ligation in 5.1, Embodiment 1
# The rats were randomly divided into groups and medicated upon coronary artery ligation. According to post-ligation survival, the rats were randomly divided into two groups, including the excipient group and the NRG30 μg/kg group. There were 19 rats in the excipient group and there were 18 rats in the NRG group. Continuous administration of medicine started on the day following the modeling, with subcutaneous administration for 3 times a day, at a dose of 10 μg/kg. Echocardiography was performed on day 14 after modeling. All the animals were medicated continuously until day 38, and the animals in the NRG group were examined by echocardiography. The animals in the NRG group were averagely divided into two subgroups, with the animals in one subgroup continuing to be medicated while the animals in the other subgroup stopped taking medicine at an early stage. The excipient group continued to be medicated. For the continuous NRG administration subgroup, a 3-week withdrawal plan was implemented on day 49: medicated every other day in the first week; medicated every three days in the second week; subcutaneously injected with NRG every four days in the third week. In terms of administration method, the rats were subcutaneously injected with NRG 3 times a day, exactly the same as above. For the NRG withdrawal subgroup, the clinical symptoms of the rats were observed. All the animals underwent echocardiography every week for monitoring of the changes in the cardiac function.
# as §1
# All experimental data were expressed in ±SD. GraphPad Prism6 was used for one-way ANOVA analysis. P<0.05 indicates a significant inter-group difference; P<0.01 indicates an extremely significant inter-group difference.
# [3] = DAY 14, 30 μg/kg sc (10 μg/kg 3 times a day), continuous
# [4] = DAY 21, 30 μg/kg sc (10 μg/kg 3 times a day), continuous
# [5] = DAY 28, 30 μg/kg sc (10 μg/kg 3 times a day), continuous
# [6] = DAY 35, 30 μg/kg sc (10 μg/kg 3 times a day), continuous
# [7] = DAY 38, Administration subgroup, 30 μg/kg sc continued
# [8] = DAY 38, Withdrawal subgroup, 30 μg/kg sc until day 38, then stopped
# [9] = DAY 42, Administration subgroup, 30 μg/kg sc continued
# [10] = DAY 42, Withdrawal subgroup, 30 μg/kg sc until day 38, then stopped
# [11] = DAY 49, Administration subgroup, 30 μg/kg sc continued
# [12] = DAY 49, Withdrawal subgroup, 30 μg/kg sc until day 38, then stopped
# [13] = DAY 56, Administration subgroup, 30 μg/kg sc, 3-week gradual withdrawal by frequency reduction from day 49
# [14] = DAY 56, Withdrawal subgroup, 30 μg/kg sc until day 38, then stopped
# [15] = DAY 63, Administration subgroup, 30 μg/kg sc, 3-week gradual withdrawal by frequency reduction from day 49
# [16] = DAY 63, Withdrawal subgroup, 30 μg/kg sc until day 38, then stopped
# [17] = DAY 68, Administration subgroup, 30 μg/kg sc, 3-week gradual withdrawal by frequency reduction from day 49
# [18] = DAY 68, Withdrawal subgroup, 30 μg/kg sc until day 38, then stopped
# [19] = DAY 74, Administration subgroup, 30 μg/kg sc, 3-week gradual withdrawal by frequency reduction from day 49
# [20] = DAY 74, Withdrawal subgroup, 30 μg/kg sc until day 38, then stopped
molecule,measurement,setting,value
"NRG: fragment of the NRG-1β2 isomer, 177-237 amino acid fragment containing an EGF-like domain (SEQ ID NO: 1); developed by Zensun (protein, listed as Homo sapiens) SHLVKCAEKEKTFCVNGGECFMVKDLSNPSRYLCKCPNEFTGDRCQNYVMASFYKAEELYQ",EF,"[1]; DAY 20, 3.75 μg/kg/D sc",39.7 ± 10.84%
same,LVEDd,"[1]; DAY 20, 3.75 μg/kg/D sc",0.937 ± 0.06 cm
same,LVEDs,"[1]; DAY 20, 3.75 μg/kg/D sc",0.777 ± 0.08 cm
same,EF,"[1]; DAY 20, 7.5 μg/kg/D sc",41.9 ± 15.17%
same,LVEDd,"[1]; DAY 20, 7.5 μg/kg/D sc",0.924 ± 0.05 cm
same,LVEDs,"[1]; DAY 20, 7.5 μg/kg/D sc",0.756 ± 0.08 cm
same,EF,"[1]; DAY 20, 15 μg/kg/D sc",40.6 ± 9.15%
same,LVEDd,"[1]; DAY 20, 15 μg/kg/D sc",0.908 ± 0.05 cm
same,LVEDs,"[1]; DAY 20, 15 μg/kg/D sc",0.759 ± 0.08 cm
same,EF,"[1]; DAY 40, 3.75 μg/kg/D sc",40.4 ± 12.86%
same,LVEDd,"[1]; DAY 40, 3.75 μg/kg/D sc",0.982 ± 0.09 cm
same,LVEDs,"[1]; DAY 40, 3.75 μg/kg/D sc",0.813 ± 0.13 cm
same,EF,"[1]; DAY 40, 7.5 μg/kg/D sc",40.5 ± 13.39%
same,LVEDd,"[1]; DAY 40, 7.5 μg/kg/D sc",0.946 ± 0.08 cm
same,LVEDs,"[1]; DAY 40, 7.5 μg/kg/D sc",0.782 ± 0.12 cm
same,EF,"[1]; DAY 40, 15 μg/kg/D sc",42.2 ± 11.27%
same,LVEDd,"[1]; DAY 40, 15 μg/kg/D sc",0.946 ± 0.08 cm
same,LVEDs,"[1]; DAY 40, 15 μg/kg/D sc",0.775 ± 0.11 cm
same,EF,"[1]; DAY 60, 3.75 μg/kg/D sc",37.0±12.23%
same,LVEDd,"[1]; DAY 60, 3.75 μg/kg/D sc",0.994±0.08 cm
same,LVEDs,"[1]; DAY 60, 3.75 μg/kg/D sc",0.839±0.12 cm
same,EF,"[1]; DAY 60, 7.5 μg/kg/D sc",38.4±12.17%
same,LVEDd,"[1]; DAY 60, 7.5 μg/kg/D sc",0.965±0.07 cm
same,LVEDs,"[1]; DAY 60, 7.5 μg/kg/D sc",0.808±0.11 cm
same,EF,"[1]; DAY 60, 15 μg/kg/D sc",42.9±11.32%
same,LVEDd,"[1]; DAY 60, 15 μg/kg/D sc",0.975±0.07 cm
same,LVEDs,"[1]; DAY 60, 15 μg/kg/D sc",0.794±0.10 cm
same,Cardiac function / EF value compared with the control group,"[1]; high-, middle- and low-dose groups (15, 7.5, 3.75 μg/kg/D sc), after 60 days of continuous administration",all improved; also recorded: higher than that of the control group
same,LVEDd and LVEDs compared with the excipient group,"[1]; high-dose group (15 μg/kg/D sc), 60 days",could be reduced
same,"LVEDd and LVEDs, cardiac systolic function, left ventricular remodeling","[2]; 30 μg/kg sc, after 35 consecutive days","significantly reduce the LVEDd and LVEDs and strengthen the cardiac systolic function, thereby reversing left ventricular remodeling"
same,EF,[2]; [3],44.5 ± 7.85 %
same,LVEDd,[2]; [3],0.860 ± 0.04 cm
same,LVEDs,[2]; [3],0.694 ± 0.06 cm
same,EF,[2]; [4],45.5 ± 7.96 %
same,LVEDd,[2]; [4],0.905 ± 0.04 cm
same,LVEDs,[2]; [4],0.725 ± 0.06 cm
same,EF,[2]; [5],44.3 ± 6.95 %
same,LVEDd,[2]; [5],0.928 ± 0.05 cm
same,LVEDs,[2]; [5],0.749 ± 0.06 cm
same,EF,[2]; [6],44.9±6.09%
same,LVEDd,[2]; [6],0.953±0.05 cm
same,LVEDs,[2]; [6],0.767±0.06 cm
same,EF,[2]; [7],44.9 ± 7.03%
same,LVEDd,[2]; [7],0.953 ± 0.06 cm
same,LVEDs,[2]; [7],0.764 ± 0.07 cm
same,EF,[2]; [8],44.7 ± 6.26%
same,LVEDd,[2]; [8],0.952 ± 0.05 cm
same,LVEDs,[2]; [8],0.767 ± 0.07 cm
same,EF,[2]; [9],46.5 ± 4.01 %
same,LVEDd,[2]; [9],0.948 ± 0.04 cm
same,LVEDs,[2]; [9],0.755 ± 0.04 cm
same,EF,[2]; [10],39.1 ± 7.11 %
same,LVEDd,[2]; [10],0.969 ± 0.04 cm
same,LVEDs,[2]; [10],0.808 ± 0.05 cm
same,EF,[2]; [11],45.0±5.51%
same,LVEDd,[2]; [11],0.973±0.07 cm
same,LVEDs,[2]; [11],0.783±0.08 cm
same,EF,[2]; [12],42.2±5.48%
same,LVEDd,[2]; [12],0.987±0.05 cm
same,LVEDs,[2]; [12],0.807±0.06 cm
same,EF,[2]; [13],38.8 ± 3.78 %
same,LVEDd,[2]; [13],1.008 ± 0.06 cm
same,LVEDs,[2]; [13],0.843 ± 0.06 cm
same,EF,[2]; [14],39.0 ± 6.24 %
same,LVEDd,[2]; [14],1.031 ± 0.05 cm
same,LVEDs,[2]; [14],0.859 ± 0.07 cm
same,EF,[2]; [15],41.3±4.92%
same,LVEDd,[2]; [15],0.989±0.07 cm
same,LVEDs,[2]; [15],0.814±0.08 cm
same,EF,[2]; [16],35.4±6.78%
same,LVEDd,[2]; [16],1.043±0.06 cm
same,LVEDs,[2]; [16],0.887±0.06 cm
same,EF,[2]; [17],40.8±4.67%
same,LVEDd,[2]; [17],0.976±0.06 cm
same,LVEDs,[2]; [17],0.805±0.07 cm
same,EF,[2]; [18],38.9±5.04%
same,LVEDd,[2]; [18],1.010±0.06 cm
same,LVEDs,[2]; [18],0.842 ± 0.06 cm
same,EF,[2]; [19],38.0 ± 3.81 %
same,LVEDd,[2]; [19],1.004 ± 0.05 cm
same,LVEDs,[2]; [19],0.842 ± 0.05 cm
same,EF,[2]; [20],34.6 ± 7.55%
same,LVEDd,[2]; [20],1.060 ± 0.05 cm
same,LVEDs,[2]; [20],0.905 ± 0.05 cm
same,Effect of sudden withdrawal on cardiac function,"[2]; day 49, withdrawal subgroup stopped after day 38",exerted some effect on the cardiac function of the rats
same,"Cardiac function and cardiac remodeling, overall conclusion",[2]; long-term sc administration followed by withdrawal through frequency reduction,can improve the cardiac function of the rats with myocardial infarction and reduce cardiac remodeling
